Consider one molecule from patent US20040087777A1 (NEURALAB, published 2004).

Experiment in all cases: rNET
The target in one experiment is T1, … analog, Residue 8 = F.
T1 peptide: DAEFRHDFGY

In a further experiment the target is T2, … analog, Residue 8 = V.
T2 peptide: DAEFRHDVGY

In another experiment the target is T3, … analog, Residue 8 = Y.
T3 peptide: DAEFRHDYGY

The next experiment deals with T4, … analog, Residue 1 = C.
T4 peptide: CAEFRHDSGY

The target in the next experiment is T5, … analog, Residue 1 = F.
T5 peptide: FAEFRHDSGY

The next experiment has as its target T6, … analog, Residue 1 = M.
T6 peptide: MAEFRHDSGY

Another experiment deals with T7, … analog, Residue 1 = P.
T7 peptide: PAEFRHDSGY

Another experiment has as its target T8, … analog, Residue 2 = C.
T8 peptide: DCEFRHDSGY

For the next experiment, the target named is T9, … analog, Residue 2 = D.
T9 peptide: DDEFRHDSGY

The target in the next experiment is T10, … analog, Residue 2 = E.
T10 peptide: DEEFRHDSGY

The next experiment concerns the target T11, … analog, Residue 2 = L.
T11 peptide: DLEFRHDSGY

Another experiment deals with T12, … analog, Residue 2 = M.
T12 peptide: DMEFRHDSGY

A further experiment concerns the target T13, … analog, Residue 2 = Q.
T13 peptide: DQEFRHDSGY

The next experiment addresses T14, … analog, Residue 2 = R.
T14 peptide: DREFRHDSGY

The target of the next experiment is T15, … analog, Residue 2 = Y.
T15 peptide: DYEFRHDSGY

The target in another experiment is T16, … analog, Residue 3 = D.
T16 peptide: DADFRHDSGY

Another experiment addresses T17, … analog, Residue 3 = M.
T17 peptide: DAMFRHDSGY

The target of another experiment is T18, … analog, Residue 3 = V.
T18 peptide: DAVFRHDSGY
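Further: antibody binding measured against single-substituted peptide analogs, each epitope position replaced by every one of 19 non-native amino acids, compared with binding to the native Aβ peptide.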

Protocol for … analog, Residue 1 = C: (§1) The rNET epitope map assay provides information about the contribution of individual residues within the epitope to the overall binding activity of the antibody. rNET analysis uses synthesized systematic single substituted peptide analogs. Binding of an antibody being tested is determined against native peptide (native antigen) and against 19 alternative “single substituted” peptides, each peptide being substituted at a first position with one of 19 non-native amino acids for that position. A profile is generated reflecting the effect of substitution at that position with the various non-native residues. Profiles are likewise generated at successive positions along the antigenic peptide. The combined profile, or epitope map, (reflecting substitution at each position with all 19 non-native residues) can then be compared to a map similarly generated for a second antibody.
(§2) Antibodies were tested for binding against the native Aβ peptide [sequence] […] Residues 1-8 were systematically substituted with each of the 19 non-native residues for that position.
Protocol for … analog, Residue 1 = F: as §1, §2
Protocol for … analog, Residue 1 = M: as §1, §2
Protocol for … analog, Residue 1 = P: as §1, §2
Protocol for … analog, Residue 2 = C: as §1, §2
Protocol for … analog, Residue 2 = D: as §1, §2
Protocol for … analog, Residue 2 = E: as §1, §2
Protocol for … analog, Residue 2 = L: as §1, §2
Protocol for … analog, Residue 2 = M: as §1, §2
Protocol for … analog, Residue 2 = Q: as §1, §2
Protocol for … analog, Residue 2 = R: as §1, §2
Protocol for … analog, Residue 2 = Y: as §1, §2
Protocol for … analog, Residue 3 = D: as §1, §2
Protocol for … analog, Residue 3 = M: as §1, §2
Protocol for … analog, Residue 3 = V: as §1, §2
Protocol for … analog, Residue 8 = F: as §1, §2
Protocol for … analog, Residue 8 = V: as §1, §2
Protocol for … analog, Residue 8 = Y: as §1, §2

B1: murine monoclonal antibody 3D6 (antibody, mouse IgG2b, V domains shown)
VH: EVKLVESGGGLVKPGASLKLSCAASGFTFSNYGMSWVRQNSDKRLEWVASIRSGGGRTYYSDNVKGRFTISRENAKNTLYLQMSSLKSEDTALYYCVRYDHYSGSSDYWGQGTTVTVSS
VL: not shown
notes: also called mAb 3D6; m3D6
For the molecule B1, the OD with … analog, Residue 8 = F stood at 0.586 OD; in the experiment with … analog, Residue 8 = V, 0.578 OD; with … analog, Residue 8 = Y, 0.574 OD; in the experiment with … analog, Residue 1 = C it was 0.45 OD; with … analog, Residue 1 = F, 0.034 OD; with … analog, Residue 1 = M, 0.039 OD. The OD with … analog, Residue 1 = P turned out to be 0.069 OD; with … analog, Residue 2 = C it was 0.553 OD; in the experiment with … analog, Residue 2 = D it was 0.119 OD; in the experiment with … analog, Residue 2 = E it was 0.563 OD; with … analog, Residue 2 = L, 0.482 OD; with … analog, Residue 2 = M, 0.535 OD. Moreover, the OD in the experiment with … analog, Residue 2 = Q came out at 0.567 OD; with … analog, Residue 2 = R, 0.562 OD; with … analog, Residue 2 = Y, 0.547 OD; with … analog, Residue 3 = D, 0.019 OD; with … analog, Residue 3 = M it was 0.019 OD; in the experiment with … analog, Residue 3 = V, 0.016 OD.
